Results published in publication PMC8062530.

Target: Siglec-9, Siglec-10, and Siglec-14
Experiment: BLI; Fc-fusions of the Siglec proteins immobilised on Protein A biosensors (ForteBio) at 5 µg/mL; PTGFRN extracellular domain in 2-fold serial dilutions starting at 100 µg/mL; equilibrium dissociation constants calculated with ForteBio Data Analysis software v. 10.0

Kd: 700 to 4000 nM
B1: extracellular domain of PTGFRN (aa 26-832) with a C-terminal histidine tag (domain or fragment)
chain: VPTATLVRVVGTELVIPCNVSDYDGPSEQNFDWSFSSLGSSFVELASTWEVGFPAQLYQERLQRGEILLRRTANDAVELHIKNVQPSDQGHYKCSTPSTDATVQGNYEDTVQVKVLADSLHVGPSARPPPSLSLREGEPFELRCTAASASPLHTHLALLWEVHRGPARRSVLALTHEGRFHPGLGYEQRYHSGDVRLDTVGSDAYRLSVSRALSADQGSYRCIVSEWIAEQGNWQEIQEKAVEVATVVIQPSVLRAAVPKNVSVAEGKELDLTCNITTDRADDVRPEVTWSFSRMPDSTLPGSRVLARLDRDSLVHSSPHVALSHVDARSYHLLVRDVSKENSGYYYCHVSLWAPGHNRSWHKVAEAVSSPAGVGVTWLEPDYQVYLNASKVPGFADDPTELACRVVDTKSGEANVRFTVSWYYRMNRRSDNVVTSELLAVMDGDWTLKYGERSKQRAQDGDFIFSKEHTDTFNFRIQRTTEEDRGNYYCVVSAWTKQRNNSWVKSKDVFSKPVNIFWALEDSVLVVKARQPKPFFAAGNTFEMTCKVSSKNIKSPRYSVLIMAEKPVGDLSSPNETKYIISLDQDSVVKLENWTDASRVDGVVLEKVQEDEFRYRMYQTQVSDAGLYRCMVTAWSPVRGSLWREAATSLSNPIEIDFQTSGPIFNASVHSDTPSVIRGDLIKLFCIITVEGAALDPDDMAFDVSWFAVHSFGLDKAPVLLSSLDRKGIVTTSRRDWKSDLSLERVSVLEFLLQVHGSEDQDFGNYYCSVTPWVKSPTGSWQKEAEIHSKPVFITVKMDVLNAFKYP
